# Values quoted from earlier work in patent publication US20200069786A1, “COMPOSITION AND PROCESS FOR PREPARING VACCINE” (TREOS BIO ZRT., priority 2018, published 2020).
# B1: SPO11 (protein, UniProt Q9Y5K1 1-396, looked up)
# Meiotic recombination protein …: MAFAPMGPEASFFDVLDRHRESLLAALRRGGREPPTGGSRLASSSEVLASIENIIQDIITSLARNEAPAFTIDNRSSWENIKFEDSVGLQMVSHCTTRKIKSDSPKSAQKFSLILKILSMIYKLVQSNTYATKRDIYYTDSQLFGNQTVVDNIINDISCMLKVSRRSLHILSTSKGLIAGNLRYIEEDGTKVNCTCGATAVAVPSNIQGIRNLVTDAKFVLIVEKDATFQRLLDDNFCNKLSPCIMITGKGVPDLNTRLLVKKLWDTFHVPVFTLVDADPHGIEIMCIYKYGSMSMSFEAHHLTVPAIRWLGLLPSDLKRLNVPKDSLIPLTKRDQMKLDSILRRPYVTCQPFWRKEMEIMADSKMKAEIQALTFLSSDYLSRVYLPNKLKFGGWI
# B2: SSX-3 (protein, UniProt Q99909 1-188, looked up)
# Protein SSX3: MNGDDTFARRPTVGAQIPEKIQKAFDDIAKYFSKEEWEKMKVSEKIVYVYMKRKYEAMTKLGFKAILPSFMRNKRVTDFQGNDFDNDPNRGNQVQRPQMTFGRLQGIFPKIMPKKPAEEGNVSKEVPEASGPQNDGKQLCPPGKPTTSEKINMISGPKRGEHAWTHRLRERKQLVIYEEISDPEEDDE
# B3: CTCFL (protein, UniProt Q8NI51 1-663, looked up)
# Transcriptional repressor …: MAATEISVLSEQFTKIKELELMPEKGLKEEEKDGVCREKDHRSPSELEAERTSGAFQDSVLEEEVELVLAPSEESEKYILTLQTVHFTSEAVELQDMSLLSIQQQEGVQVVVQQPGPGLLWLEEGPRQSLQQCVAISIQQELYSPQEMEVLQFHALEENVMVASEDSKLAVSLAETTGLIKLEEEQEKNQLLAERTKEQLFFVETMSGDERSDEIVLTVSNSNVEEQEDQPTAGQADAEKAKSTKNQRKTKGAKGTFHCDVCMFTSSRMSSFNRHMKTHTSEKPHLCHLCLKTFRTVTLLRNHVNTHTGTRPYKCNDCNMAFVTSGELVRHRRYKHTHEKPFKCSMCKYASVEASKLKRHVRSHTGERPFQCCQCSYASRDTYKLKRHMRTHSGEKPYECHICHTRFTQSGTMKIHILQKHGENVPKYQCPHCATIIARKSDLRVHMRNLHAYSAAELKCRYCSAVFHERYALIQHQKTHKNEKRFKCKHCSYACKQERHMTAHIRTHTGEKPFTCLSCNKCFRQKQLLNAHFRKYHDANFIPTVYKCSKCGKGFSRWINLHRHSEKCGSGEAKSAASGKGRRTRKRKQTILKEATKGQKEAAKGWKEAANGDEAAAEEASTTKGEQFPGEMFPVACRETTARVKEEVDEGVTCEMLLNTMDK
# B4: XAGE-1 (protein, UniProt Q9HD64 1-81, looked up)
# X antigen family member 1: MESPKKKNQQLKVGILHLGSRQKKIRIQLRSQCATWKVICKSCISQTPGINLDLGSGVKVKIIPKEEHCKMPEAGEEQPQV
# B5: SSX-5 (protein, UniProt O60225 1-188, looked up)
# Protein SSX5: MNGDDAFVRRPRVGSQIPEKMQKAFDDIAKYFSEKEWEKMKASEKIIYVYMKRKYEAMTKLGFKATLPPFMRNKRVADFQGNDFDNDPNRGNQVEHPQMTFGRLQGIFPKITPEKPAEEGNDSKGVPEASGPQNNGKQLRPSGKLNTSEKVNKTSGPKRGKHAWTHRVRERKQLVIYEEISDPQEDDE
# B6: ADAM2 (protein, UniProt Q99965 175-735, looked up)
# Disintegrin and …: DFAKYIEMHVIVEKQLYNHMGSDTTVVAQKVFQLIGLTNAIFVSFNITIILSSLELWIDENKIATTGEANELLHTFLRWKTSYLVLRPHDVAFLLVYREKSNYVGATFQGKMCDANYAGGVVLHPRTISLESLAVILAQLLSLSMGITYDDINKCQCSGAVCIMNPEAIHFSGVKIFSNCSFEDFAHFISKQKSQCLHNQPRLDPFFKQQAVCGNAKLEAGEECDCGTEQDCALIGETCCDIATCRFKAGSNCAEGPCCENCLFMSKERMCRPSFEECDLPEYCNGSSASCPENHYVQTGHPCGLNQWICIDGVCMSGDKQCTDTFGKEVEFGPSECYSHLNSKTDVSGNCGISDSGYTQCEADNLQCGKLICKYVGKFLLQIPRATIIYANISGHLCIAVEFASDHADSQKMWIKDGTSCGSNKVCRNQRCVSSSYLGYDCTTDKCNDRGVCNNKKHCHCSASYLPPDCSVQSDLWPGGSIDSGNFPPVAIPARLPERRYIENIYHSKPMRWPFFLFIPFFIIFCVLIAIMVKVNFQRKKWRTEDYSSDEQPESESEPKG
# B7: CCDC110 (protein, UniProt Q8TBZ0 1-833, looked up)
# Coiled-coil domain-containing …: MSPEKQHREEDEVDSVLLSASKILNSSEGVKESGCSDTEYGCIAESENQIQPQSALKVLQQQLESFQALRMQTLQNVSMVQSEISEILNKSIIEVENPQFSSEKNLVFGTRIEKDLPTENQEENLSMEKSHHFEDSKTLHSVEEKLSGDSVNSLPQSVNVPSQIHSEDTLTLRTSTDNLSSNIIIHPSENSDILKNYNNFYRFLPTAPPNVMSQADTVILDKSKITVPFLKHGFCENLDDICHSIKQMKEELQKSHDGEVALTNELQTLQTDPDVHRNGKYDMSPIHQDKMNFIKEENLDGNLNEDIKSKRISELEALVKKLLPFRETVSKFHVHFCRKCKKLSKSEMHRGKKNEKNNKEIPITGKNITDLKFHSRVPRYTLSFLDQTKHEMKDKERQPFLVKQGSIISENEKTSKVNSVTEQCVAKIQYLQNYLKESVQIQKKVMELESENLNLKSKMKPLIFTTQSLIQKVETYEKQLKNLVEEKSTIQSKLSKTEEYSKECLKEFKKIISKYNVLQGQNKTLEEKNIQLSLEKQQMMEALDQLKSKEHKTQSDMAIVNNENNRMSIEMEAMKTNILLIQDEKEMLEKKTHQLLKEKSSLGNELKESQLEIIQLKEKERLAKTEQETLLQIIETVKDEKLNLETTLQESTAARQIMEREIENIQTYQSTAEENFLQEIKNAKSEASIYKNSLSEIGKECEMLSKMVMETKTDNQILKEELKKHSQENIKFENSISRLTEDKILLENYVRSIENERDTLEFEMRHLQREYLSLSDKICNQHNDPSKTTYISRREKFHFDNYTHEDTSSPQSRPLASDLKGYFKVKDRTLKHH
# B8: CCDC62 (protein, UniProt Q6P9F0 1-684, looked up)
# Coiled-coil domain-containing …: MNPPAAFLAGRQNIGSEVEISTIEKQRKELQLLIGELKDRDKELNDMVAVHQQQLLSWEEDRQKVLTLEERCSKLEGELHKRTEIIRSLTKKVKALESNQMECQTALQKTQLQLQEMAQKATHSSLLSEDLEARNETLSNTLVELSAQVGQLQAREQALTTMIKLKDKDIIEAVNHIADCSGKFKMLEHALRDAKMAETCIVKEKQDYKQKLKALKIEVNKLKEDLNEKTTENNEQREEIIRLKQEKSCLHDELLFTVEREKRKDELLNIAKSKQERTNSELHNLRQIYVKQQSDLQFLNFNVENSQELIQMYDSKMEESKALDSSRDMCLSDLENNHPKVDIKREKNQKSLFKDQKFEAMLVQQNRSDKSSCDECKEKKQQIDTVFGEKSVITLSSIFTKDLVEKHNLPWSLGGKTQIEPENKITLCKIHTKSPKCHGTGVQNEGKQPSETPTLSDEKQWHDVSVYLGLTNCPSSKHPEKLDVECQDQMERSEISCCQKNEACLGESGMCDSKCCHPSNFIIEAPGHMSDVEWMSIFKPSKMQRIVRLKSGCTCSESICGTQHDSPASELIAIQDSHSLGSSKSALREDETESSSNKKNSPTSLLIYKDAPAFNEKASIVLPSQDDFSPTSKLQRLLAESRQMVTDLELSTLLPISHENLTGSATNKSEVPEESAQKNTFVSY
# System: TSA
# Details: BRAIN
row,Molecule,TSA Expression Rate (ER) [%]
1,B1,12
2,B2,0
3,B3,9
4,B4,18
5,B5,0

# Same assay, conditions: BREAST
row,Molecule,TSA Expression Rate (ER) [%]
1,B1,0
2,B2,0
3,B6,0
4,B3,74
5,B4,58
6,B5,0

# Same assay, conditions: HCC
row,Molecule,TSA Expression Rate (ER) [%]
1,B7,50
2,B8,0
3,B3,55
4,B4,33
5,B5,37

# Same assay, conditions: LUNG
row,Molecule,TSA Expression Rate (ER) [%]
1,B7,50
2,B3,36
3,B4,25

# Same assay, conditions: OVARIAN
row,Molecule,TSA Expression Rate (ER) [%]
1,B1,0
2,B2,0
3,B6,0
4,B8,0
5,B3,82
6,B4,5
7,B5,0

# Same assay, conditions: PANCREATIC
row,Molecule,TSA Expression Rate (ER) [%]
1,B2,0
2,B7,100
3,B3,29

# Same assay, conditions: THYROID
row,Molecule,TSA Expression Rate (ER) [%]
1,B1,0
2,B2,0
3,B5,0

# Same assay, conditions: TSA expression rate in CRC
row,Molecule,Expression Rate (ER) % [%]
1,B1,0
2,B2,0
3,B7,50
4,B6,0
5,B8,13
6,B3,80
7,B5,2

# Same assay, conditions: TSA expression rate in Cervical cancer
row,Molecule,Expression Rate (ER) % [%]
1,B1,33
2,B6,0
3,B3,32

# Same assay, conditions: TSA expression rate in Esophageal
row,Molecule,Expression Rate (ER) % [%]
1,B8,21
2,B3,56

# Same assay, conditions: TSA expression rate in GASTRIC cancer
row,Molecule,Expression Rate (ER) % [%]
1,B7,100
2,B8,7
3,B5,0

# Same assay, conditions: TSA expression rate in HEAD and NECK
row,Molecule,Expression Rate (ER) % [%]
1,B1,0
2,B7,67
3,B8,12
4,B4,40
5,B5,7

# Same assay, conditions: TSA expression rate in Kidney
row,Molecule,Expression Rate (ER) % [%]
1,B1,0
2,B2,0
3,B6,9
4,B8,25
5,B5,0

# Same assay, conditions: TSA expression rate in LEUKEMIAS
row,Molecule,Expression Rate (ER) % [%]
1,B2,4
2,B6,6
3,B5,24

# Same assay, conditions: TSA expression rate in LUNG cancer
row,Molecule,Expression Rate (ER) % [%]
1,B1,0
2,B6,1
3,B5,4

# Same assay, conditions: TSA expression rate in MELANOMA
row,Molecule,Expression Rate (ER) % [%]
1,B1,6
2,B7,60
3,B6,3
4,B3,27
5,B4,7
6,B5,5

# Same assay, conditions: TSA expression rate in PEDIATRIC
row,Molecule,Expression Rate (ER) % [%]
1,B4,53

# Same assay, conditions: TSA expression rate in PROSTATE cancer
row,Molecule,Expression Rate (ER) % [%]
1,B1,0
2,B6,25
3,B8,22
4,B3,98
